The text below walks through data of PMC3005890.

For this assay, the target named is teichuronic acid synthetase (TUAS) subunit B, 52.5 kDa (Micrococcus luteus (endogenous in ATCC 4698)). Kind of assay: native gel or EMSA; endogenous TUAS co-purified from detergent-solubilised membranes; the active ~440 kDa band on a 3-12% native gradient polyacrylamide gel is separated by 9.5% SDS-PAGE into the 54 kDa and 52.5 kDa subunits; the complex carries lipids and pigments.

On to “teichuronic acid synthetase (TUAS) subunit A, 54 kDa (natural protein)”, for which the stoichiometry N (commonly a count of units in the complex or per binding partner) stood at 8.
